The target in this test is T1, BCMA (TNFRSF17), human plasma membrane protein array (human, UniProt Q02223 1-184).
T1 construct: also called B-cell maturation antigen
T1 sequence (looked up): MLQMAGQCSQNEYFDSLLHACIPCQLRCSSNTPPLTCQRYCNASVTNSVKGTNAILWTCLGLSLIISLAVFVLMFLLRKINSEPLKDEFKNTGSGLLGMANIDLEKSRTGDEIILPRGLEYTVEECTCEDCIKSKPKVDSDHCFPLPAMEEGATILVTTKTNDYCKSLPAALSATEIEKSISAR
The experiment in a line: commercial human plasma membrane protein array.

Consider 1 molecule from patent publication US20250000973A1 (Novartis, published 2025).

B1: anti-human BCMA single chain antibody variable fragment (scFv) (PI61) (scFv)
scFv: QVQLQESGGGVVQPGRSLRLSCAASGFTFSSYGMHWVRQAPGKGLEWVAVISYDGSNKYYADSVKGRFTISRDNSKNTLYLQMNSLRAEDTAVYYCGGSGYALHDDYYGLDVWGQGTLVTVSSGGGGSGGGGSGGGGSQSALTQPASVSGSPGQSITISCTGTSSDVGGYNYVSWYQQHPGKAPKLMIYDVSNRPSGVSNRFSGSKSGNTASLTISGLQAEDEADYYCSSYTSSSTLYVFGSGTKVTVL
notes: also called PI61 scFv
With B1, the binding result was “binds”.
